# Substitutions are numbered along the chain they refer to. In names and notes the source's numbering stands.
# B1: anti-CXCR4 chimeric Mab c515H7 (antibody, V domains shown)
# VH: EVNLVESGGGLVQPGGSLRLSCATSGFTFTDNYMSWVRQPPGKALEWLGFIRNKANGYTTDYSASVRGRFTISRDNSQSILYLQMNALRAEDSATYYCARDVGSNYFDYWGQGTTLTVSS
# VL: DIVMSQSPSSLAVSAGEKVTMSCKSSQSLFNSRTRKNYLAWYQQKPGQSPKLLIYWASARDSGVPARFTGSGSETYFTLTISRVQAEDLAVYYCMQSFNLRTFGGGTKLEIK
# B2: anti-CXCR4 Mab 301aE5 (murine monoclonal antibody) (antibody, V domains shown)
# VH: QVQLKESGPGLVAPSQSLSITCTVSGFSLTDYGVYWVRQPPGKGLEWLGMIWGDGTTDYNSALKSRLSISKDNSKSQVFLKMNTLQTDDTARYYCARGRQFGFDYWGQGTTLTVSS
# VL: B1 VL with S22R, Y55F, A59I, D61E, A66D, E74G, Y76D, R83S, M95K, F98Y
# B3: humanized Mab hz515H7 VH1 D76N VL2 (antibody, V domains shown)
# VH: EVQLVESGGGLVQPGRSLRLSCTASGFTFTDNYMSWVRQAPGKGLEWVGFIRNKANGYTTEYAASVKGRFTISRDNSKSIAYLQMNSLKTEDTAVYYCARDVGSNYFDYWGQGTLVTVSS
# VL: B1 VL with S5T, A15L, K18R, V19A, G105Q, L109V
# B4: anti-CXCR4 Mab 515H7 (murine monoclonal antibody) (antibody, V domains shown)
# VH: B1 VH
# VL: B1 VL
# B5: humanized Mab hz515H7 VH1 D76N VL2.2 (antibody, V domains shown)
# VH: B3 VH
# VL: B1 VL with S5T, S9D, A15L, K18R, V19A, S49P, A66D, L89V, G105Q, L109V
# B6: humanized Mab hz515H7 VH1 D76N VL2.3 (antibody, V domains shown)
# VH: B3 VH
# VL: DIVMTQSPDSLAVSLGERATMSCKSSQSLFNSRTRKNYLAWYQQKPGQPPKLLIYWASARDSGVPDRFTGSGSETYFTLTISSLQAEDLAVYYCMQSFNLRTFGQGTKVEIK
# B7: humanized Mab hz515H7 VH1 D76N VL2.1 (antibody, V domains shown)
# VH: B3 VH
# VL: B6 VL with T69S, S83R, L84V
# Target: CXCR4 homodimer BRET pair [CXCR4/Rluc+CXCR4/YFP] on HEK293 cells (Renilla reniformis, UniProt P61073 1-352; P61073 1-352)
# Test: cell-based or functional assay
# Sequence of CXCR4 homodimer BRET pair [CXCR4/Rluc+CXCR4/YFP] on HEK293 cells (P61073 whole entry, chain 1 of 2): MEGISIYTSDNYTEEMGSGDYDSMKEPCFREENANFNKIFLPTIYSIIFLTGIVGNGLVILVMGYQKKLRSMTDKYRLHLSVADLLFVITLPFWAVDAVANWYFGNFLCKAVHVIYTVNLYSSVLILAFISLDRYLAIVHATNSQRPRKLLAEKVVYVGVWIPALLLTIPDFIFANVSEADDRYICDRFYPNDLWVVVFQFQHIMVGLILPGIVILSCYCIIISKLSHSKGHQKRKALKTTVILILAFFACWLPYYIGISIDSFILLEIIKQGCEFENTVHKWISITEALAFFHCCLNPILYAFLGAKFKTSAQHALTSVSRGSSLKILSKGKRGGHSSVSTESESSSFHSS
# Sequence of CXCR4 homodimer BRET pair [CXCR4/Rluc+CXCR4/YFP] on HEK293 cells (P61073 whole entry, chain 2 of 2): as the sequence (P61073 whole entry, chain 1 of 2) above
row,Binder,% inhibition of SDF-1-induced BRET increase
1,B1,96%
2,B2,69%
3,B3,~88%
4,B4,69%
5,B5,~33%
6,B6,~21%
7,B7,~65%

# Target: T1, human CXCR4 (hCXCR4), expressed on cells (human, UniProt P61073 1-352)
# Test: cell-based or functional assay
# T1 sequence (P61073 whole entry): as the sequence (P61073 whole entry, chain 1 of 2) above
Binder,"IC50 (µg/ml), % inhibition of infected cells, HIV-1 92UG024 replication in human PBMC","IC50 (µg/ml), % inhibition of infected cells, HIV-1 KON replication in human PBMC","IC50 (µg/ml), % inhibition of infected cells, HIV-1 MN replication in human PBMC","IC80 (µg/ml), % inhibition of infected cells, HIV-1 92UG024 replication in human PBMC","IC80 (µg/ml), % inhibition of infected cells, HIV-1 KON replication in human PBMC","IC80 (µg/ml), % inhibition of infected cells, HIV-1 MN replication in human PBMC","IC90 (µg/ml), % inhibition of infected cells, HIV-1 92UG024 replication in human PBMC","IC90 (µg/ml), % inhibition of infected cells, HIV-1 KON replication in human PBMC","IC90 (µg/ml), % inhibition of infected cells, HIV-1 MN replication in human PBMC"
B1,< 1.5 µg/mL,1.5 µg/mL,< 1.5 µg/mL,3 µg/mL,10 µg/mL,1 µg/mL,15 µg/mL,20 µg/mL,15 µg/mL
B2,50 µg/mL,150 µg/mL,1 µg/mL,150 µg/mL,> 150 µg/mL,150 µg/mL,> 150 µg/mL,> 150 µg/mL,> 150 µg/mL
B4,0.5 µg/mL,1 µg/mL,< 1.5 µg/mL,3 µg/mL,8 µg/mL,1.5 µg/mL,10 µg/mL,15 µg/mL,10 µg/mL

# Target: T1, human CXCR4 (hCXCR4), expressed on cells
# Test: cell-based or functional assay
# Remark: another data set of the same source
Binder,"IC50 (µg/ml), % inhibition of infected cells, HIV-1 89.6 (dual X4/R5) replication in human PBMC","IC80 (µg/ml), % inhibition of infected cells, HIV-1 89.6 (dual X4/R5) replication in human PBMC"
B1,< 1.5 µg/mL,1.5 µg/mL
B2,20 µg/mL,150 µg/mL
B4,< 1.5 µg/mL,1.5 µg/mL

# Target: CCR5 on GHOST cells expressing CD4 and CCR5 (UniProt P51681 1-352, limits assumed)
# Test: cell-based or functional assay
# Sequence of CCR5 on GHOST cells expressing CD4 and CCR5 (P51681 whole entry): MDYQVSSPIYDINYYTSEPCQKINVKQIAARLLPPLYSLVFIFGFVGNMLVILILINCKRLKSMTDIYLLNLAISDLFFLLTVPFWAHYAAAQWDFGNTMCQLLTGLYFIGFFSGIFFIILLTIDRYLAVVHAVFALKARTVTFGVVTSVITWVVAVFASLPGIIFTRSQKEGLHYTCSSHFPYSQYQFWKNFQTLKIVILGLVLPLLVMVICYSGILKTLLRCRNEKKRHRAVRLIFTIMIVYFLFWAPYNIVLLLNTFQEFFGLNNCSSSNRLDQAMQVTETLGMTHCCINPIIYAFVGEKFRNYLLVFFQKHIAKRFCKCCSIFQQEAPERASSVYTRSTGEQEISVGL
row,Binder,"IC50 (µg/ml), % inhibition of infected cells, GHOST CCR5 / R5 HIV-1 BaL virus"
1,B4,> 75 µg/mL

# Target: T1, human CXCR4 (hCXCR4), expressed on cells
# Test: cell-based or functional assay
# Remark: another data set of the same source
row,Binder,"IC50 (µg/ml), % inhibition of infected cells, GHOST CXCR4 / X4 HIV-1 LAI virus"
1,B4,0.08 µg/mL
